This passage reports protein stability index results from the supplement of paper PMC10567573.

± gives the standard deviation.

A short description of this series: protein stability index of a GFP-peptide fusion (GPS, HEK-293T) (PSI 1-6); higher = more stable.
[1] abbreviates: treatment: DMSO, c terminus: a fixed tail appended.
[2] abbreviates: treatment: MLN4924 1 uM, 8 h, c terminus: a fixed tail appended.
The mark [3] stands for this setting: treatment: DMSO, c terminus: native.
Where [4] appears, read: treatment: MLN4924 1 uM, 8 h, c terminus: native.
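Note: 24-mer peptide tiles fused after GFP, lentivirally expressed, FACS-sorted into six equal bins by GFP/DsRed ratio, decoded by Illumina sequencing, PSI is the read-weighted mean bin number.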

As to TSPYSDPVVSMDLDPQPITDEEEG [PTPRD], the protein stability index by setting is: under setting [1], 5.63 ± 0.19; under setting [2], 5.61 ± 0.095.

Regarding TVAMSTLNFCGPNVINHFYCDLPQ [OR3A1], the protein stability index by setting is: under setting [1], 2.39 ± 0.47; under setting [2], 2.22 ± 0.17.

As to TVANDVMLRTGLGVIRMWADEGSR [NETO1], the protein stability index by setting is: under setting [1], 2.61 ± 0.11; under setting [2], 2.77 ± 0.21.

Regarding TVEPRLLVADLLYWKDTRTSGVVF [RTN2], the protein stability index is 2.97 ± 0.61 under setting [1] and 2.98 ± 0.6 under setting [2].

The sequence TVGDLGIVRRRSRDVPESPQHAAD [YJU2B] had a protein stability index under setting [1] of 5.08 ± 0.25 and a protein stability index under setting [2] of 5.3 ± 0.17.

For TVKLLVEEKADVLARGPLNQTALH [RIPK4], the protein stability index reads like this: under setting [1], 3.35 ± 0.58; under setting [2], 3.4 ± 0.37.

Consider TVVTGLGPDTQDLEGQSPPQSLPS [PBXIP1], for which the protein stability index runs as follows: under setting [1], 5.07 ± 0.34; under setting [2], 5.16 ± 0.098.

Regarding VAASPAPAGERRIYRHRIPSTICF [ZNF511], the protein stability index reads like this: under setting [1], 2.51 ± 0.18; under setting [2], 2.48 ± 0.21.

Consider VAEPLAGPACVTVILPSCVPYNK [KLHL14], for which the protein stability index amounted to 2.32 ± 0.37 under setting [3] and 2.36 ± 0.32 under setting [4].

With VAFRGLKGKKLYPVVSAVWGHCEV [SPSB4], the protein stability index turned out to be 1.83 ± 0.46 under setting [1] and 2.71 ± 0.2 under setting [2].

In the case of VATWAIFVHRVGQPSIGGKLSPL [CTBP1-DT], the protein stability index is, setting by setting: under setting [3], 3.12 ± 0.21; under setting [4], 2.92 ± 0.47.

For the sequence VCGHTLCESCVDLLFVRGAGNCPE [MNAT1], the protein stability index is 2.64 ± 0.42 under setting [1] and 2.87 ± 0.53 under setting [2].

With VCMDLRANLKQVKKEDTEKERDLR [TNNI2], the protein stability index is 4.71 ± 0.18 under setting [1] and 4.77 ± 0.4 under setting [2].

In the case of VCTFTYLLVGAAVFDALESDHEMR [KCNK9], the protein stability index under setting [1] was found to be 2.9 ± 0.7 and the protein stability index under setting [2] worked out at 2.85 ± 0.15.

Consider VDATLEHVQDPQNTVKVQVLYPDG [INTS4], for which the protein stability index runs as follows: under setting [1], 4.37 ± 0.12; under setting [2], 4.49 ± 0.15.

Consider VDDHTPWVKGSVPPPLDQYVKFDA [CLPTM1], for which the protein stability index reads like this: under setting [1], 3.99 ± 0.15; under setting [2], 3.74 ± 0.24.

As for VDPANDTFDIDPMVVTDCIQVDPP [MCOLN1], the protein stability index runs as follows: under setting [1], 5.09 ± 0.38; under setting [2], 5.22 ± 0.28.

Take VEGRKHVDVQTELYLEEIADRIIE [RSPH3]: the protein stability index runs as follows: under setting [1], 2.55 ± 0.33; under setting [2], 2.77 ± 0.41.

As for VELPCRISPGKNATGMEVGWYRPP [MOG], the protein stability index by setting is: under setting [1], 2.33 ± 0.091; under setting [2], 2.32 ± 0.28.

In the case of VFDSEKCVSIPDVVGWFVLFYKPG [GULP1], the protein stability index is, setting by setting: under setting [1], 2.8 ± 1; under setting [2], 2.83 ± 0.33.

For VFIDFSVYNANINLFCVLRLVVEF [PKD2L1], the protein stability index reads like this: under setting [1], 3.51 ± 0.61; under setting [2], 2.7 ± 0.4.

For VGGGSGDEASAATPPSSRRVWSPP [ZBTB22], the protein stability index by setting is: under setting [1], 4.66 ± 0.2; under setting [2], 4.76 ± 0.34.

As for VGVATADAPLHSVGYTTLVGNNHE [SPSB1], the protein stability index was 4.25 ± 0.45 under setting [1] and 4.16 ± 0.19 under setting [2].

Regarding VILNYPSPWDQEERPAQRDCSFPG [TRAF3IP2], the protein stability index amounted to 2.79 ± 0.21 under setting [1] and 3.15 ± 0.25 under setting [2].

With VIMWDIGGRKGTAIELQGHNDRVQ [WDFY2], the protein stability index is 2.57 ± 0.64 under setting [1] and 2.45 ± 0.17 under setting [2].

For the sequence VKEWFGLGGEQAEEKAFESVIEPV [MIA2], the protein stability index was 4.23 ± 0.23 under setting [1] and 4.04 ± 0.15 under setting [2].

For VKISDFGLAKCNGLSHSHDLSMDG [RIPK4], the protein stability index came out at 2.95 ± 0.42 under setting [1] and 3.23 ± 0.37 under setting [2].

In the case of VKTSVPSSKSSGDLVDLFDGTSQS [CLINT1], the protein stability index reads like this: under setting [1], 4.71 ± 0.24; under setting [2], 4.8 ± 0.18.

Turning to VLEMFDLRMMVENIMNKEAFMNQE [RHOBTB1], the protein stability index reads like this: under setting [1], 2.47 ± 0.45; under setting [2], 2.33 ± 0.26.

Take VLITVEDVNDNSPELTITSLFSPV [PCDHGA10]: the protein stability index is, setting by setting: under setting [1], 2.3 ± 0.49; under setting [2], 2.07 ± 0.19.

For VLPHVPLGVIQRDLAKTGCVDLTI [AUP1], the protein stability index worked out at 2.14 ± 0.25 under setting [1] and 2.37 ± 0.37 under setting [2].

As for VLPKPKVISCLEQGEEPWVQVSPE [ZNF75A], the protein stability index under setting [1] turned out to be 4.21 ± 0.23 and the protein stability index under setting [2] stood at 4.07 ± 0.3.

Regarding VLQDRAAKGSLGTQIGFADLMGVL [FEM1A], the protein stability index by setting is: under setting [1], 2.15 ± 0.31; under setting [2], 2.22 ± 0.35.

Regarding VLYPDGQAQMIHPKPADFRNPGPG [INTS4], the protein stability index stood at 3.59 ± 0.098 under setting [1] and 3.67 ± 0.3 under setting [2].

In the case of VNADIEKVNQNQAKRCTVIGGSGF [NSDHL], the protein stability index runs as follows: under setting [1], 3.79 ± 0.2; under setting [2], 3.87 ± 0.19.

On to VNPAYPESRYTSDYFISYGIEHAQ [ETS1], for which the protein stability index runs as follows: under setting [1], 2.8 ± 0.51; under setting [2], 2.8 ± 0.4.

In the case of VNVEMDAAPGVDLTRVLAEMREQY [KRT15], the protein stability index was 3.13 ± 0.42 under setting [1] and 3.27 ± 0.31 under setting [2].

Regarding VNVPGSFVCQCYSGYALAEDGKRC [MATN2], the protein stability index was 2.75 ± 0.42 under setting [1] and 3.05 ± 0.46 under setting [2].

VPFDIFTEEVKFYQLGEEALLKFR [KCNA4] gave a protein stability index under setting [1] of 2.32 ± 0.36 and a protein stability index under setting [2] of 2.54 ± 0.19.

VPIDIFSEEIRFYQLGEEAMEKFR [KCNA3] yielded a protein stability index under setting [1] of 3.14 ± 0.28 and a protein stability index under setting [2] of 3.23 ± 0.18.

As for VPQDPDLEEEEEEEDLVLTCEDDE [ZBTB22], the protein stability index stood at 5.59 ± 0.22 under setting [1] and 5.64 ± 0.25 under setting [2].

As for VQADQERERQRRLEVEREAEKKRE [LRRC59], the protein stability index stood at 5.52 ± 0.093 under setting [1] and 5.64 ± 0.17 under setting [2].

VQAPSYGARPVSSAASVYAGAGGS [KRT18]: the protein stability index by setting is: under setting [1], 3.91 ± 0.081; under setting [2], 3.82 ± 0.69.

Regarding VQDMGQEDMLLPLAWRIVNDTYRT [CCNC], the protein stability index was found to be 2.37 ± 0.21 under setting [1] and 2.57 ± 0.43 under setting [2].

VRDQISHCTVKLRQTTGLMEYCLE [TRIM9]: the protein stability index by setting is: under setting [1], 2.59 ± 0.31; under setting [2], 2.65 ± 0.36.

With VRVRQDSGAEGHSHSCYHDTRSGF [TRIM35], the protein stability index runs as follows: under setting [1], 3.51 ± 0.25; under setting [2], 3.62 ± 0.31.

As for VSFEDPEFKSSFSQSFSLYVKYQV [ATE1], the protein stability index runs as follows: under setting [1], 2.99 ± 0.81; under setting [2], 2.51 ± 0.61.

VSGSPVTQNHAASALPTGSPKRGT [FBF1]: the protein stability index runs as follows: under setting [1], 5.27 ± 0.16; under setting [2], 5.22 ± 0.25.

As to VSKELRMYDEKAHEWKSLAPMDAP [KLHL13], the protein stability index turned out to be 3.73 ± 0.36 under setting [1] and 4.04 ± 0.11 under setting [2].

VTSQQEPQIPVDRGSETTYESSAD [TAF7L]: the protein stability index under setting [1] worked out at 5.21 ± 0.25 and the protein stability index under setting [2] was 5.52 ± 0.23.

As for VVLDMEEGTLGYAIGGTYLGPAFR [SPSB2], the protein stability index came out at 2.37 ± 0.24 under setting [1] and 2.19 ± 0.074 under setting [2].

For VVQTLYPFSSVTEEELNFEKGETM [NCK2], the protein stability index under setting [1] came out at 3.66 ± 0.17 and the protein stability index under setting [2] is 3.77 ± 0.29.

For WASRREAFAQRPSSAPDLMCLSPD [CDC25B], the protein stability index is, setting by setting: under setting [1], 3.85 ± 0.21; under setting [2], 4.07 ± 0.2.

Regarding WENRHEGVFKFLRSEAVAQLWGQK [ELF3], the protein stability index by setting is: under setting [1], 2.43 ± 0.32; under setting [2], 2.67 ± 0.35.

Sequence WFPPAIMGVVSLVFLIIYYLDPSV [ARL6IP1] had a protein stability index under setting [1] of 2.52 ± 0.46 and a protein stability index under setting [2] of 3.28 ± 0.64.

Consider WGVVSHSFPATLETQEQDVDLVQK [MMP1], for which the protein stability index came out at 4.58 ± 0.34 under setting [1] and 4.73 ± 0.43 under setting [2].

WHTIAPMGTRRKHLGCAVYQDMIY [KLHL20] came in with a protein stability index under setting [2] of 1.93 ± 0.96.

The sequence WIFVNLTVRFCILGKESFYDTFHT [HACD3] yielded a protein stability index under setting [1] of 3.29 ± 0.26 and a protein stability index under setting [2] of 3.05 ± 0.12.

Turning to WLVHRDPEGSVSGSQPNSGLALES [NFE2L1], the protein stability index runs as follows: under setting [1], 3.78 ± 0.31; under setting [2], 3.97 ± 0.12.

Turning to WNDCISSGLRGGILIELAMRGRIY [GOLPH3L], the protein stability index amounted to 2.89 ± 0.45 under setting [1] and 2.48 ± 0.53 under setting [2].

Consider WPKLCPCLRSGIGSSQALGPSPPL [MYCL], for which the protein stability index by setting is: under setting [1], 2.46 ± 0.41; under setting [2], 2.47 ± 0.14.

The sequence WQQQSYLDSGIHSGATTTAPSLSG [CTNNB1] had a protein stability index under setting [1] of 3.71 ± 0.1 and a protein stability index under setting [2] of 3.78 ± 0.33.

Turning to WRWQLYAAQSTKSPWNFLGDELYE [CLPTM1], the protein stability index runs as follows: under setting [1], 2.79 ± 0.38; under setting [2], 2.39 ± 0.3.

On to WTHVTLLIVVTQSHLVIHNLFEGM [CDS2], for which the protein stability index by setting is: under setting [1], 3.22 ± 0.23; under setting [2], 3.34 ± 0.35.

Consider WYWHGDVNSNKVVMSGVKCSGTEL [LOXL2], for which the protein stability index turned out to be 2.68 ± 0.53 under setting [1] and 2.75 ± 0.28 under setting [2].

For the sequence YAIVRRPTVGIGGDRLQFNQLSQA [EFHC1], the protein stability index runs as follows: under setting [1], 2.06 ± 0.21; under setting [2], 2.5 ± 0.19.

Take YARTPTLDPDTMHARLRLSADRLT [TRIM14]: the protein stability index runs as follows: under setting [1], 2.91 ± 0.17; under setting [2], 3.27 ± 0.33.

Take YDQQIWEKSIEQTQIKGLKNKPKK [PHTF1]: the protein stability index by setting is: under setting [1], 4.9 ± 0.093; under setting [2], 5.17 ± 0.083.

For the sequence YDRVAQLDQLLHYRKKSAEFPDFY [CHGB], the protein stability index under setting [1] was found to be 2.72 ± 0.14 and the protein stability index under setting [2] was determined as 2.8 ± 0.21.

Regarding YGKDIVKACSLLDVAVHMPCLGHT [ZBED1], the protein stability index came to 2.14 ± 0.3 under setting [1] and 2.29 ± 0.33 under setting [2].

With YGPLKPLPQTPHLEEDLKEVLRSE [MYBL2], the protein stability index was determined as 5 ± 0.19 under setting [1] and 4.95 ± 0.24 under setting [2].

Regarding YHTGKTPFVCPECGQPCSQKSGLI [ZNF649], the protein stability index came to 2.53 ± 0.59 under setting [1] and 3.24 ± 0.58 under setting [2].
